In patent publication US20190161555A1:
Numbering of substitutions follows the chain as printed. One block for each binder: values may come before it.

Columns and labels:
[1] = target: human/mouse 5T4 chimera aa173-420 (human; mouse) (UniProt Q13641); assay: flow cytometry, cells with 5T4 chimera; % positive cells over that of the best clone
[2] = target: Chimeric OX40 construct 1544 (human; mouse) (UniProt P47741); assay: flow cytometry, 293-F cells transfected with the construct
[3] = target: Chimeric OX40 construct 1545 (human; mouse) (UniProt P43489); assay: as above
Chimeric OX40 construct 1545 (human; mouse), sequence (P43489 other isoform, or with tags, fused parts or gaps mutant, form in doubt): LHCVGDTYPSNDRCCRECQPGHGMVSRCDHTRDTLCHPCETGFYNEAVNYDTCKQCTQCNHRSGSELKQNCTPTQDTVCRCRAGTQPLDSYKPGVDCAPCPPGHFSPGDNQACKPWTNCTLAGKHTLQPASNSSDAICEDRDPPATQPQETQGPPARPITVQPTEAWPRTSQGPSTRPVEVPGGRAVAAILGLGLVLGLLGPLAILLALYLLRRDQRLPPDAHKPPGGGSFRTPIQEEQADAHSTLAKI

[4] = target: Chimeric OX40 construct 1546 (human; mouse) (UniProt P43489); assay: as above
Chimeric OX40 construct 1546 (human; mouse), sequence (P43489 other isoform, or with tags, fused parts or gaps mutant, form in doubt): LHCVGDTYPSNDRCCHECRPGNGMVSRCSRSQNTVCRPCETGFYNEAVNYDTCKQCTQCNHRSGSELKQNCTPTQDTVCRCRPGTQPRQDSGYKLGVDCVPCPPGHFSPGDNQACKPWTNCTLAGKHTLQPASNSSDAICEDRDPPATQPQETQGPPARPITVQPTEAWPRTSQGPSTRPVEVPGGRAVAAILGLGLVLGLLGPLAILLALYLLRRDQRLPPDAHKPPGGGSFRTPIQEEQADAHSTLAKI

[5] = target: Chimeric OX40 construct 1547 (human; mouse) (UniProt P43489); assay: as above
Chimeric OX40 construct 1547 (human; mouse), sequence (P43489 other isoform, or with tags, fused parts or gaps mutant, form in doubt): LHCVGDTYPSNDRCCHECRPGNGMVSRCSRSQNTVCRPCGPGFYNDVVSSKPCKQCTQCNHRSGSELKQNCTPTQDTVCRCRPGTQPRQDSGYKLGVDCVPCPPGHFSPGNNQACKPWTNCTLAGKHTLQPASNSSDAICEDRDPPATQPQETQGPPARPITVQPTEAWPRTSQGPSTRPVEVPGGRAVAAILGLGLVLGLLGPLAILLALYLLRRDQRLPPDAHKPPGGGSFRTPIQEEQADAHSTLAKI

[6] = target: Chimeric OX40 construct 1548 (human; mouse) (UniProt P43489); assay: as above
Chimeric OX40 construct 1548 (human; mouse), sequence (P43489 other isoform, or with tags, fused parts or gaps mutant, form in doubt): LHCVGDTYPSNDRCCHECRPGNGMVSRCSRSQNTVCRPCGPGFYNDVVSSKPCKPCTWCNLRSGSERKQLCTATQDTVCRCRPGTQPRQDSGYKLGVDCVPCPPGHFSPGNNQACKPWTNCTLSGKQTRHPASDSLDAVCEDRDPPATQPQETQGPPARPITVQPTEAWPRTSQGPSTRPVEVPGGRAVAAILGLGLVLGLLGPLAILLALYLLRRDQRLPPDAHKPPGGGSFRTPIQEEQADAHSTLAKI

[7] = target: Chimeric OX40 construct 1549 (human; mouse) (UniProt P47741); assay: as above

Chimeric OX40 construct 1544 (human; mouse), sequence (P43489 other isoform, or with tags, fused parts or gaps mutant, form in doubt): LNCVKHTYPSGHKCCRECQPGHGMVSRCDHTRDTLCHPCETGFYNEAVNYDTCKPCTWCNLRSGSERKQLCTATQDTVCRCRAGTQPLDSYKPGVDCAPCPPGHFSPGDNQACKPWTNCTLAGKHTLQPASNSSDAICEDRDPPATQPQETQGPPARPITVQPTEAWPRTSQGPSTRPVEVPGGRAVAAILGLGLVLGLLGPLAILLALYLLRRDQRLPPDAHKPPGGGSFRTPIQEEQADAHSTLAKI
human/mouse 5T4 chimera aa173-420 (human; mouse), sequence (Q13641 other isoform, or with tags, fused parts or gaps mutant limits assumed, form in doubt): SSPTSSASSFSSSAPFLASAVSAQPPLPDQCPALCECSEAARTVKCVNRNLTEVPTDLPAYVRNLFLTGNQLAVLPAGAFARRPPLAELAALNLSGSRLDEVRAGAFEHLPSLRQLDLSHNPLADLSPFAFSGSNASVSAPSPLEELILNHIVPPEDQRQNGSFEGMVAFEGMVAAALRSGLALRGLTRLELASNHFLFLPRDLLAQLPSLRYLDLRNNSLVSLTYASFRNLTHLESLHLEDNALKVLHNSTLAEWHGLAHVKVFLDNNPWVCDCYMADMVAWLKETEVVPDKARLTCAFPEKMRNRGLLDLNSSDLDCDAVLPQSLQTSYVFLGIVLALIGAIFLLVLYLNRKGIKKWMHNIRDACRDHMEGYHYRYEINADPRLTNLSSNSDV

B1: 1206/1207 (antibody, V domains shown)
VH: EVQLLESGGGLVQPGGSLRLSCAASGFTFSGSSMSWVRQAPGKGLEWVSSIYYSGSGTYYADSVKGRFTISRDNSKNTLYLQMNSLRAEDTAVYYCARYGRNVHPYNLDYWGQGTLVTVSS
VL: DIQMTQSPSSLSASVGDRVTITCRASQSISSYLNWYQQKPGKAPKLLIYAASSLQSGVPSRFSGSGSGTDFTLTISSLQPEDFATYYCQQGYYYLPTFGQGTKLEIK
normalized % positive cells [1]: 0.3

B3: 1212/1213 (antibody, IgG1, V domains shown)
VH: EVQLLESGGGLVQPGGSLRLSCAASGFTFSSYAMSWVRQAPGKGLEWVSYISSYGGYTSYADSVKGRFTISRDNSKNTLYLQMNSLRAEDTAVYYCARYHSGVLDYWGQGTLVTVSS
VL: DIQMTQSPSSLSASVGDRVTITCRASQSISSYLNWYQQKPGKAPKLLIYAASSLQSGVPSRFSGSGSGTDFTLTISSLQPEDFATYYCQQYYYHYLLTFGQGTKLEIK
normalized % positive cells [1]: -0.01

B6: 1166/1167 (antibody, V domains shown)
VH: EVQLLESGGGLVQPGGSLRLSCAASGFTFGGYYMSWVRQAPGKGLEWVSAISGSGGSTYYADSVKGRFTISRDNSKNTLYLQMNSLRAEDTAVYYCARYDYASMDYWGQGTLVTVSS
VL: B3 VL with Y93W, H94Y, Y95G, L97S
relative MFI (fold over isotype control) [2]: 14.2 | relative MFI (fold over isotype control) [3]: 1 | relative MFI (fold over isotype control) [4]: 0.8 | relative MFI (fold over isotype control) [5]: 15.2 | relative MFI (fold over isotype control) [6]: 15.8 | relative MFI (fold over isotype control) [7]: 11.3

More lines, now with the values ahead:

relative MFI (fold over isotype control) [2]: 11.6 | relative MFI (fold over isotype control) [3]: 1.2 | relative MFI (fold over isotype control) [4]: 0.9 | relative MFI (fold over isotype control) [5]: 1.1 | relative MFI (fold over isotype control) [6]: 17.2 | relative MFI (fold over isotype control) [7]: 10.6
B2: 1514/1515 (antibody, V domains shown)
VH: EVQLLESGGGLVQPGGSLRLSCAASGFTFGYYYMSWVRQAPGKGLEWVSGISSYGSYTYYADSVKGRFTISRDNSKNTLYLQMNSLRAEDTAVYYCARSGYSNWANSFDYWGQGTLVTVSS
VL: B1 VL with Y92D, Y94T, P96F

relative MFI (fold over isotype control) [2]: 1.5 | relative MFI (fold over isotype control) [3]: 0.9 | relative MFI (fold over isotype control) [4]: 0.9 | relative MFI (fold over isotype control) [5]: 1 | relative MFI (fold over isotype control) [6]: 15.4 | relative MFI (fold over isotype control) [7]: 11.2
B4: 1524/1525 (antibody, V domains shown)
VH: EVQLLESGGGLVQPGGSLRLSCAASGFTFGSYYMGWVRQAPGKGLEWVSSIGSYYGYTYYADSVKGRFTISRDNSKNTLYLQMNSLRAEDTAVYYCARHDYGALDYWGQGTLVTVSS
VL: B3 VL with Y92G, Y93P, H94S, Y95G, L97F

relative MFI (fold over isotype control) [2]: 1.1 | relative MFI (fold over isotype control) [3]: 1.3 | relative MFI (fold over isotype control) [4]: 0.9 | relative MFI (fold over isotype control) [5]: 1 | relative MFI (fold over isotype control) [6]: 12.7 | relative MFI (fold over isotype control) [7]: 8.5
B5: 1526/1527 (antibody, V domains shown)
VH: EVQLLESGGGLVQPGGSLRLSCAASGFTFSGYSMYWVRQAPGKGLEWVSGIGYSGYGTYYADSVKGRFTISRDNSKNTLYLQMNSLRAEDTAVYYCARYYFHDYAAYSLDYWGQGTLVTVSS
VL: B3 VL with Y92G, Y93S, H94D, Y95S
